Laboratory results: publication PMC9396398, “Crystal structure of Ankyrin-G in complex with a fragment of Neurofascin reveals binding mechanisms required for integrity of the axon initial segment” (The Journal of Biological Chemistry, 2022)

B1: AnkG ANK repeats (residues 38-855, R1-24) [not stated] / Nfasc ankyrin-binding domain (ABD, residues 1187-1214) [not stated] (parent)
chain 1: SDDSLVDYGEGGEGQFNEDGSFIGQYTV
chain 2: KSDANASYLRAARAGHLEKALDYIKNGVDVNICNQNGLNALHLASKEGHVEVVSELLQREANVDAATKKGNTALHIASLAGQAEVVKVLVTNGANVNAQSQNGFTPLYMAAQENHLEVVRFLLDNGASQSLATEDGFTPLAVALQQGHDQVVSLLLENDTKGKVRLPALHIAARKDDTKAAALLLQNDTNADIESKMVVNRATESGFTPLHIAAHYGNINVATLLLNRAAAVDFTARNDITPLHVASKRGNANMVKLLLDRGAKIDAKTRDGLTPLHCGARSGHEQVVEMLLDRAAPILSKTKNGLSPLHMATQGDHLNCVQLLLQHNVPVDDVTNDYLTALHVAAHCGHYKVAKVLLDKKANPNAKALNGFTPLHIACKKNRIRVMELLLKHGASIQAVTESGLTPIHVAAFMGHVNIVSQLMHHGASPNTTNVRGETALHMAARSGQAEVVRYLVQDGAQVEAKAKDDQTPLHISARLGKADIVQQLLQQGASPNAATTSGYTPLHLSAREGHEDVAAFLLDHGASLSITTKKGFTPLHVAAKYGKLEVASLLLQKSASPDAAGKSGLTPLHVAAHYDNQKVALLLLDQGASPHAAAKNGYTPLHIAAKKNQMDIATSLLEYGADANAVTRQGIASVHLAAQEGHVDMVSLLLSRNANVNLSNKSGLTPLHLAAQEDRVNVAEVLVNQGAHVDAQTKMGYTPLHVGCHYGNIKIVNFLLQHSAKVNAKTKNGYTPLHQAAQQGHTHIINVLLQNNASPNELTVNGNTALAIARRLGYISVVDTLKVVTEEIMTTTTITEKHKMNVPETMNEVLDMS
B2: Nfasc 1198 to 1214 WT [not stated] / AnkG ANK repeats (residues 38-855, R1-24) [not stated] (parent)
chain 1: GEGQFNEDGSFIGQYTV
chain 2: B1 chain 2

Variants of: B1
Assay: ITC
Conditions: with Nfasc ankyrin-binding domain (ABD, residues 1187-1214); parent: 1

Row | Variant | ratio to parent
1 | chain 2 H347A | 8
2 | chain 2 I240Q L273Q | 14
3 | chain 2 M311Q | 8
4 | chain 2 R281A Q314A | 3
5 | chain 2 T302A N304A | 11
6 | chain 2 V245Q | 6

Variants of: B2
Assay: ITC
Conditions: with AnkG ANK repeats (residues 38-855, R1-24); parent: 1

Row | Variant | ratio to parent
7 | chain 1 D8A | 4
8 | chain 1 D8K | 23
9 | chain 1 F11Q | 4
10 | chain 1 I12Q | 3
11 | chain 1 N6A | 1
12 | chain 1 S10A | 4
13 | chain 1 T16A | 1
